What was measured:
Experiment in all cases: direct ELISA on plated overlapping 16-mer peptides of AMHR2-ED, 4D12G1 as primary antibody
11-26 = molecular target: T1, 11-26
T1 construct: overlapping 16-mer of human AMHR2-ED; also called p11-26; AMHR2-ED 11-26 16-mer peptide
T1 peptide: EAPGVRGSTKTLGELL
Method: (§1) Competitive ELISAs were used to determine the AMHR2-ED sequence recognized by the 4D12G1 mAb. A set of overlapping 16-mer peptides spanning the entire 132 amino acid sequence of human AMHR2-ED was generated. Each peptide shifted by one amino acid and all cysteine residues were replaced by serine to avoid disulfide bond formation (Thermo Fisher). Individual 16-mer peptides were plated in solid phase in microtiter wells, increasing concentrations of each 16-mer peptide were incubated with the 4D12G1 mAb in liquid phase, and ELISAs were performed as described above. The binding site of the 4D12G1 mAb was confirmed by competitive ELISA using overlapping peptides containing alanine substitutions for each amino acid spanning the immunoreactive region of AMEIR2-ED. The substituted peptides were used in liquid phase with the 4D12G1 mAb to determine binding inhibition to rhAMHR2-ED in solid phase. The AMHR2-ED binding sequence of the 4D12G1 mAb and the critical AMHR2-ED residues for such binding were confirmed by SPOT peptide arrays. Peptides spanning the AMHR2-ED 9-40 immunoreactive region and ranging from 4-16-mers in length were synthesized >90% pure on cellulose membranes (JPT Peptide Technologies, Berlin, Germany), treated overnight with blocking buffer (Thermo Fisher), followed by treatment with the 4D12G1 mAb at 1.0 μg/ml for 3 hours at room temperature, followed by three washes with PBS containing 0.01% Tween-20 (Bio-Rad). The membranes were then treated with a 1:10,000 dilution of an HRP-conjugated rabbit anti-mouse IgG (MilliporeSigma) followed by three washes with PBS containing 0.01% Tween-20 (Bio-Rad). Bound antibody was detected using the HyGLO chemiluminescence system (Thomas Scientific).
(§2) An overlapping series of 16-mer peptides spanning the entire 132 amino acid sequence of human AMHR2-ED (FIG. 3A) with moving single amino acid shifts were plated for direct ELISA testing using the 4D12G1 mAb as primary antibody. […] To determine amino acids recognized by the 4D12G1 mAb, an overlapping series of peptides spanning the immunoreactive sequence comprising AMHR2-ED 13-30 were synthesized with alanine substitutions at each N-terminal residue or with glycine substitutions for any native N-terminal alanine.

12-27 = molecular target: T2, 12-27
T2 construct: overlapping 16-mer of human AMHR2-ED; also called p12-27; AMHR2-ED 12-27 16-mer peptide
T2 peptide: APGVRGSTKTLGELLD
Method: as §1, §2

17-32 = molecular target: T3, 17-32
T3 construct: overlapping 16-mer of human AMHR2-ED; also called p17-32; AMHR2-ED 17-32 16-mer peptide
T3 peptide: GSTKTLGELLDTGTEL
Method: as §1, §2

14-29 = molecular target: T4, 14-29
T4 construct: overlapping 16-mer of human AMHR2-ED; also called p14-29; AMHR2-ED 14-29 16-mer peptide
T4 peptide: GVRGSTKTLGELLDTG
Method: as §1, §2

binding result (11-26): binds
binding result (12-27): binds
binding result (17-32): binds
binding result (14-29): binds
B1: 4D12G1 mAb (antibody, IgG1, V domains shown)
VH: DVKLVESGGGLVKLGGSLKLSCAASGFTFSRYFMSWVRQTPEKRLELVAAINSDGGRTYYPDTVKGRFTISRDNAKNTLYLQMSSLKSEDTALYYCTRHIYSYYEDYFDYWGQGTTLTVSS
VL: DVVMTQTPLSLPVSLGDQASISCRSSQSLVHSNGNTYLHWYLQKPGQSPKLLIYKVSKRFSGVPDRFSGSGSGTDFTLKISRVEAEDLGVYFCSQSTHVYTFGGGTKLEIK
notes: also called 4D12G1 IgG1 mAb

From US20230078601A1 (CLEVELAND CLINIC FOUNDATION, published 2023)
